Experimental data from patent US20210130436A1 (published 2021).

Experiments:
[1] = biological target: T1, human CTLA4 (CTLA-4), full-length, on CHO cells (human, UniProt P16410 36-223); assay: flow cytometry, CHO cells stably expressing CTLA4
T1 construct: also called huCTLA4

[2] = biological target: T2, human PD-L1, full-length, on CHO cells (human, UniProt Q9NZQ7 19-290); assay: flow cytometry, CHO cells stably expressing PD-L1
T2 construct: also called huPD-L1; CD274

[3] = biological target: T3, human PD-L1 (full-length, expressed on CHO cells) (human, UniProt Q9NZQ7 19-290); assay: flow cytometry, CHO cells expressing huPD-L1, PE anti-human Fc
T3 construct: also called huPD-L1; CD274

[4] = biological target: T4, CD28 (endogenously expressed on Jurkat/IL2 reporter cells) (human, UniProt P10747 19-220); assay: flow cytometry, Jurkat/IL2 reporter cells (endogenous CD28), PE anti-human Fc
T4 construct: Endogenous CD28 of Jurkat cells; also called human CD28

[5] = biological target: T5, CD28 endogenously expressed on Jurkat/IL2 reporter cells (human, UniProt P10747 19-220); assay: flow cytometry, Jurkat cells (CD28)
T5 construct: also called Jurkats (CD28)

T2 sequence (Q9NZQ7 19-290): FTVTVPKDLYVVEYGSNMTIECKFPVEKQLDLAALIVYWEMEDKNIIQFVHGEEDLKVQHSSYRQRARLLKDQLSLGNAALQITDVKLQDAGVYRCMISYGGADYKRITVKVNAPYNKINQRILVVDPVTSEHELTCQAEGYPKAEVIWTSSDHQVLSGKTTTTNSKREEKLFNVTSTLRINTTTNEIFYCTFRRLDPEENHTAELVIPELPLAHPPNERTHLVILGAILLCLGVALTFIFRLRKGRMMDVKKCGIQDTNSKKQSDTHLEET
T1 sequence (P16410 36-223): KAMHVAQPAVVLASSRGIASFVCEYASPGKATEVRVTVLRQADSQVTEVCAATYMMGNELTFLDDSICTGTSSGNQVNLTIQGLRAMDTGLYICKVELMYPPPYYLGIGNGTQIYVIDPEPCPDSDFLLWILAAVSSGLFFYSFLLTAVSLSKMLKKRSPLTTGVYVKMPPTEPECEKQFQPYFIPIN
T3 sequence (Q9NZQ7 19-290): as the sequence (Q9NZQ7 19-290) above

| Binder | MFI at 33.3 nM [1] [MFI] | MFI at 33.3 nM [2] [MFI] | MFI at 33.3 nM [3] [MFI] | MFI at 33.3 nM [4] [MFI] | MFI at 33.3 nM [5] [MFI] |
| --- | --- | --- | --- | --- | --- |
| variant CD80 IgV-Fc D46V/M47L/V68M/L85Q (Fc fusion, not shown: small tags and cut ends; a dimerising Fc or GST) VIHVTKEVKEVATLSCGHNVSVEELAQTRIYWQKEKKMVLTMMSGVLNIWPEYKNRTIFDITNNLSIMILALRPSDEGTYECVVQKYEKDAFKREHLAEVTLSVKAD | 32500 | 29700 | – | – | – |
| variant CD80 IgV-Fc E35D/D46V/M47L/V68M (Fc fusion, not shown: small tags and cut ends; a dimerising Fc or GST) VIHVTKEVKEVATLSCGHNVSVEELAQTRIYWQKDKKMVLTMMSGVLNIWPEYKNRTIFDITNNLSIMILALRPSDEGTYECVVLKYEKDAFKREHLAEVTLSVKAD | 34300 | 29300 | – | – | – |
| variant CD80 IgV-Fc D46V/V68M/L85Q (Fc fusion, not shown: small tags and cut ends; a dimerising Fc or GST) VIHVTKEVKEVATLSCGHNVSVEELAQTRIYWQKEKKMVLTMMSGVMNIWPEYKNRTIFDITNNLSIMILALRPSDEGTYECVVQKYEKDAFKREHLAEVTLSVKAD | 7570 | 4170 | – | – | – |
| variant CD80 IgV-Fc E35D/D46V/M47L (Fc fusion, not shown: small tags and cut ends; a dimerising Fc or GST) VIHVTKEVKEVATLSCGHNVSVEELAQTRIYWQKDKKMVLTMMSGVLNIWPEYKNRTIFDITNNLSIVILALRPSDEGTYECVVLKYEKDAFKREHLAEVTLSVKAD | 45000 | 7990 | – | – | – |
| variant CD80 IgV-Fc E35D/D46V/V68M/L85Q (Fc fusion, not shown: small tags and cut ends; a dimerising Fc or GST) VIHVTKEVKEVATLSCGHNVSVEELAQTRIYWQKDKKMVLTMMSGVMNIWPEYKNRTIFDITNNLSIMILALRPSDEGTYECVVQKYEKDAFKREHLAEVTLSVKAD | 32200 | 23600 | – | – | – |
| variant CD80 IgV-Fc E35D/D46V/V68M (Fc fusion, not shown: small tags and cut ends; a dimerising Fc or GST) VIHVTKEVKEVATLSCGHNVSVEELAQTRIYWQKDKKMVLTMMSGVMNIWPEYKNRTIFDITNNLSIMILALRPSDEGTYECVVLKYEKDAFKREHLAEVTLSVKAD | 31200 | 26100 | – | – | – |

Second part, the binder after the results:

| MFI at 33.3 nM [1] [MFI] | MFI at 33.3 nM [2] [MFI] | MFI at 33.3 nM [3] [MFI] | MFI at 33.3 nM [4] [MFI] | MFI at 33.3 nM [5] [MFI] | Binder |
| --- | --- | --- | --- | --- | --- |
| – | – | 36100 | 282 | – | variant CD80 IgV-Fc Q27H/E35D/M47L/L85Q/R94Q/E95K (Fc fusion, not shown: a dimerising Fc or GST) VIHVTKEVKEVATLSCGHNVSVEELAHTRIYWQKDKKMVLTMMSGDLNIWPEYKNRTIFDITNNLSIVILALRPSDEGTYECVVQKYEKDAFKQKHLAEVTLSVKAD |
| – | 5800 | – | – | 88.1 | variant CD80 IgV-Fc M47L/L85Q (Fc fusion, not shown: small tags and cut ends; a dimerising Fc or GST) VIHVTKEVKEVATLSCGHNVSVEELAQTRIYWQKEKKMVLTMMSGDLNIWPEYKNRTIFDITNNLSIVILALRPSDEGTYECVVQKYEKDAFKREHLAEVTLSVKAD |
| – | – | – | 266 | – | variant CD80 IgV-Fc S15P/Q33L/E35D/M47L/L85Q (Fc fusion, not shown: a dimerising Fc or GST) VIHVTKEVKEVATLPCGHNVSVEELAQTRIYWLKDKKMVLTMMSGDLNIWPEYKNRTIFDITNNLSIVILALRPSDEGTYECVVQKYEKDAFKREHLAEVTLSVKAD |
| – | – | 39100 | 276 | – | variant CD80 IgV-Fc Q33K/E35D/M47V/K89E/K93R (Fc fusion, not shown: a dimerising Fc or GST) VIHVTKEVKEVATLSCGHNVSVEELAQTRIYWKKDKKMVLTMMSGDVNIWPEYKNRTIFDITNNLSIVILALRPSDEGTYECVVLKYEEDAFRREHLAEVTLSVKAD |
| 3000 | 97 | – | – | 35 | variant CD80 IgV-Fc L85Q (Fc fusion, not shown: small tags and cut ends; a dimerising Fc or GST) VIHVTKEVKEVATLSCGHNVSVEELAQTRIYWQKEKKMVLTMMSGDMNIWPEYKNRTIFDITNNLSIVILALRPSDEGTYECVVQKYEKDAFKREHLAEVTLSVKAD |
